Patent publication US20160046705A1 (Amgen, published 2016)

T1: human sclerostin (human, UniProt Q9BQB4 24-213, biotin-labeled (site not stated))
T1 construct: also called biotin-labeled human sclerostin; SOST
T1 sequence: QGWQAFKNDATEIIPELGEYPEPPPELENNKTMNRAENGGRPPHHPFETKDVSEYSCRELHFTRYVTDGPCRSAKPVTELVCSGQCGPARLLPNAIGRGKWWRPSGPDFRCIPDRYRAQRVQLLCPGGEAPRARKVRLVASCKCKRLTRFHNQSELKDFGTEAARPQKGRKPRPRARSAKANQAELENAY


Target: T1, human sclerostin
Experiment: competition alpha screen, increasing antibody against his-tagged LRP6 / biotin-labeled human sclerostin

| binding result | Binder |
| --- | --- |
| binds | 27H6 (antibody, V domains shown, also called sclerostin antibody 27H6) VH: EVQLVESGGGLVQPGGSLRLSCAASGFTFSSYSMNWVRQAPGKGLEWVSYISSSGSSIYYADSVKGRFTISRDNAKNSLYLQMNSLRDEDTAVYYCARERYYGDTPFDYWGQGTLVTVSS VL: DIVMTQTPLSLPVTPGEPASISCRSSQSLLNSVDGSTNLDWYLQKPGQSPQLLIYTLSYRASGVPDRFSGSGSGTDFTLKISRVEAEDVGVYYCMQRIEFPLTFGGGTKVEIK |
| binds | 20C3 (antibody, V domains shown, Parental anti-sclerostin antibody, described as directed against the loop 2 region of sclerostin) VH: QVQLQESGPGLVKPSETLSLTCTVSGGSISSYYWSWIRQPPGKGLEWIGYISDSGSTNYNPSLKSRIPISVDTSKNQFSLKLSSVTAADTAVYYCARWQLAHDAFDIWGQGTMVTVSS VL: QSALTQPASVSGSPGQSITISCTGTSSDVGGYNYVSWYQQHPGKAPKLMIYEVSYRPSGVSNRFSGSKSGSTASLTISGLQPEDEADYYCSSYAISSTLVFGGGTKMTVL |
